The target in one experiment is T1, latent human PAI-1 (human, UniProt P05121 24-402).
T1 construct: Same protein as active PAI-1 but in the latent conformation; also called recombinant latent human PAI-1; latent PAI-1
Briefly: ELISA, latent human PAI-1 on the plate. A general note: An ELISA detects its analyte on a solid surface through an enzyme-linked reagent.

Experiment [1] concerns the target T2, human PAI-1 in complex with uPA (human, UniProt P05121 24-402; P00749 21-431, limits assumed).
T2 construct: uPA was coated on the plate and active PAI-1 was captured on it; also called uPA-PAI-1 complex; Human uPA-PAI-1
Briefly: ELISA, uPA-PAI-1 complex on the plate.

Experiment [2] has as its target T3, active human PAI-1 in complex with vitronectin (human, UniProt P05121 24-402; P04004 20-478).
T3 construct: Vitronectin was coated on the plate and active PAI-1 was captured on it; also called VTN-PAI-1 complex; VTN-PAI-1
The experiment in a line: ELISA, VTN-PAI-1 complex on the plate. The method, then: An HRP-labeled goat anti-mouse Ig antibody (Southern Biotech, 1010-05) for the detection of a test antibody having an Fe region of a mouse antibody and an HRP-labeled rabbit anti-human Ig antibody (Southern Biotech, 6145-05) for the detection of a test antibody having an Fc region of a human antibody are used as the detection antibody. After incubation at room temperature for 30 minutes, the plates were washed three times with a washing solution. A color developing solution contained in a peroxidase color development kit (Sumitomo Bakelite Co., Ltd.) was added at 100 μL/well, followed by allowing to stand at room temperature for about 15 minutes, 100 μL of a reaction stop solution contained in the color development kit was added, and then the OD450 value was measured using an EnVision counter (PerkinElmer Co., Ltd.).
For each plate, the test of each antibody was carried out in duplicate, and the average value was calculated. In connection with the calculation of a PAI-1 binding rate at each concentration of each antibody, the measurement value of a well to which 0.1% BSA-containing PBS had been added instead of an antibody was taken to be 0%, and the measurement value of the maximum concentration in each antibody was set to 100%. […] The calculated PAI-1 binding rate was analyzed to calculate EC50 values of the antibodies by four-parameter logistic curve regression.

Experiment [3] addresses T4, human PAI-1 in complex with tPA (human, UniProt P05121 24-402; P00750 36-562).
T4 construct: tPA was coated on the plate and active PAI-1 was captured on it; also called tPA-PAI-1 complex; Human tPA-PAI-1
The experiment in a line: ELISA, tPA-PAI-1 complex on the plate.

The target in experiment [4] is recombinant active human PAI-1 (human, UniProt P05121 24-402). The experiment in a line: cell-based or functional assay.
In experiment [5] the target is active monkey PAI-1 in complex with vitronectin (monkey). Briefly: ELISA, VTN-monkey PAI-1 complex on the plate.
Chain of active monkey PAI-1 in complex with vitronectin (monkey) (P04004 20-478, one chain of several): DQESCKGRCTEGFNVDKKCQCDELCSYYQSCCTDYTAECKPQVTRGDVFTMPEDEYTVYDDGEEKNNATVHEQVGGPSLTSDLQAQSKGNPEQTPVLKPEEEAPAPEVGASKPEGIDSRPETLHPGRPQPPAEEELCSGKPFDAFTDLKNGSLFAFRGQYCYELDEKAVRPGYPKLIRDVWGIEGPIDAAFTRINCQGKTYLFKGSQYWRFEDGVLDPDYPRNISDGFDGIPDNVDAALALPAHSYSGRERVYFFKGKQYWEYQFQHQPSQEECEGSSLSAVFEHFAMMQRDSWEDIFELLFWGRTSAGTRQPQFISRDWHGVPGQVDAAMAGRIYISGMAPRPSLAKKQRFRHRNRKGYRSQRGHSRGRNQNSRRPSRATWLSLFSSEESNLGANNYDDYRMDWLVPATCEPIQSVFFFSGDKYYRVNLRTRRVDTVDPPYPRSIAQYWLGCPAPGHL
The target of experiment [6] is T5, active PAI-1 in human plasma (human, UniProt P05121 24-402).
T5 construct: Native protein in diluted plasma; also called human plasma-derived active PAI-1; active human PAI-1 in the plasma
Briefly: ELISA: inhibition of the capture of active PAI-1 of human plasma on immobilised uPA. The procedure: After the blocking agent in the assay plate was removed by reverse centrifugation, the pre-incubated plasma-antibody mixtures, the calibration curve sample, and the control sample were added at 100 μL/well to the assay plate which was then allowed to stand at room temperature for 30 minutes. The plate was washed three times with a washing solution (0.05% Tween-20-containing TBS), and anti-PAI-1 antibodies (Progen Biotechnik, MA-33H1F7) diluted 3,000-fold with a blocking agent (NACALAI TESQUE, INC., 03953-95) solution which had been diluted 20-fold in PBS were added thereto at 100 μL/well. […] An alkaline phosphatase substrate (Chemiluminescent AP; SurModics, APU4-0100-01) 5-fold diluted in a 0.1 mM magnesium chloride aqueous solution containing 2 mM Tris (pH 9.8) was added at 100 μL/well, and the signal value was measured using an EnVision counter (PerkinElmer Co., Ltd.).
The concentration of active human PAI-1 was calculated using a calibration curve. The test was carried out in duplicate for each antibody, and the average value was calculated. […] The calculated active human PAI-1 inhibitory rate was analyzed to calculate IC50 values of the antibodies by four-parameter logistic curve regression.

Experiment [7] addresses T5, active PAI-1 in human plasma. The experiment in a line: ELISA: inhibition of the capture of active PAI-1 of human plasma on immobilised uPA (Example 9). The procedure: (§1) The evaluation of an inhibitory activity on active PAI-1 in human plasma was carried out according to the method of Example 5. The evaluation of an inhibitory activity on active PAI-1 in monkey plasma was carried out using monkey plasma instead of human plasma in the method described in Example 5. With regard to the monkey plasma, the plasma was diluted using 0.1% BSA-containing PBS, such that the monkey plasma was diluted 120-fold when a plasma-antibody mixture was prepared. For both of two evaluation systems, the final concentration of each antibody was used in a range from 300 ng/mL to 0.3 ng/mL (7-step dilution). As a calibration curve sample, recombinant active human PAI-1 (Molecular Innovations Inc., PAI-A) was used which had been diluted in 7 steps in a range from 3000 pg/mL to 3 pg/mL with 0.1% BSA-containing PBS.
(§2) The concentration of each active PAI-1 was calculated using a calibration curve. The test was carried out in duplicate for each antibody, and the average value was calculated. […] Each of the calculated active PAI-1 inhibitory rates was analyzed to calculate IC50 values of the antibodies by four-parameter logistic curve regression.

Experiment [8] deals with T6, active PAI-1 in monkey plasma (cynomolgus monkey, UniProt G7P138 24-402).
T6 construct: Native protein in diluted plasma
Briefly: ELISA: inhibition of the capture of active PAI-1 of monkey plasma on immobilised uPA (Example 9). The procedure: as §1, §2

Experiment [9] has as its target T3, active human PAI-1 in complex with …. The experiment in a line: ELISA, VTN-PAI-1 complex on the plate; 100% set to the signal of MA56-A7C10 at its maximum concentration.

Here are results for four molecules from US20160369008A1 (Astellas, published 2016).

B1: MA-33H1F7 (antibody, V domains shown)
VH: QVQLQQSGAEVVKPGASVKLACTASGFNIKDTYIHWVKQGPEQGLEWIGRIDPANGNTKYDSKFQDKATITADTSSNTAYLHLSSLTSEDTAVYYCVRGDYDYVYFDYWGQGTTVTVSS
VL: DIQMTQSPSSLSASLGDRVTISCRASQDISNFLDWYQQKPDGTVKLLIYYTSRLHSGVPSRFSGSGSGTDYSLTISKLEQEDIATYFCQQGNTFPPTFGGGTKLEIK
What is called EC50 is the concentration at which the effect is half-maximal. Take B1: the EC50 with latent human PAI-1 was found to be 0.0136 µg/mL; in [1], 0.0127 µg/mL; in experiment [2], 0.0143 µg/mL; in experiment [3], 0.0117 µg/mL.

B2: fully human HOT-1 (antibody, human IgG1, kappa, V domains shown)
VH: EVQLVESGGGVVRPGGSLRLSCAASGFTFDDHGMTWVRQAPGKGLEWVSGINWNGARTVYADSVKGRFTISRDNAKNSLYLHLISLRAEDTALYHCARDRGLGLFDYWGQGTLVTVSS
VL: DIQMTQSPSTLSASVGDRVTITCRASQSISSWLAWYQQKPGKVPKILIYKASRLESGVPSRISGSGSGTEFTLTISSLQPDDFATYYCQQYNGYSYTFGQGTKLEIKR
notes: Human Ig gamma1 / human kappa constant regions; also called fully human antibody of HOT-1; fully human HOT-1 antibody
One may read the IC50 as the concentration at which inhibition is half-maximal. For the molecule B2, the “EC50 value, taking the activity of uPA as an indicator (cleavage of a fluorogenic uPA substrate peptide)” value in experiment [4] turned out to be 0.0127 µg/mL. Besides, the half-maximal effective concentration (EC50) amounted to 0.0036 µg/mL in experiment [5] and 0.0042 µg/mL in [2]. The figures for the IC50 in experiment [6], in experiment [7] and in [8] were 0.006 µg/mL, 0.0042 µg/mL and 0.037 µg/mL, respectively.

B3: HOT-1 (chimeric antibody) (antibody, V domains shown)
VH: B2 VH
VL: B2 VL
The molecule B3 gave an IC50 in [6] of 0.0113 µg/mL.

B4: MA-33B8 (antibody, V domains shown)
VH: not shown
VL: DIVMTQSPSSLAVSVGEKVTMSCKSSQSLLNIIKQKNCLAWYQQKPGQSPKLLIYWASTRESGVPDRFTGSGSGTDFTLTISSVKAEDLAVYYCQQYYSYPYTFGGGTKLEIK
B4: the EC50 is 0.64 µg/mL in the experiment with latent human PAI-1, 0.0129 µg/mL in experiment [1], 0.0228 µg/mL in [3] and 5.68 µg/mL in [9].
